Results on 18 sequences are retold here after the DeepSol protein solubility set.

The nature of the data set: soluble on expression in E. coli; label from the status in PepcDB or PDB records.
Turning to “MGSDKIHHHHHHMLTASSITLQFASKPLFENVNVKFGDGNRYGLIGANGSGKSTFMKILAGELEPTAGNVSLDPGERMAWLRQDQFGYEDQRVLDVVMQGHVEMWRVMQEKDAIYMNPEASEEDYLRAAELEGKFGELGGYDAEARAGELLLGVGIPTEQHQGTMSQIAPGFKLRVLLAQALFSKPDILLLDEPTNNLDINTIRWLEQVLNESNATIVVISHDRHFLNQVCTHMADLDYGTIKVWPGNYDDYMLASSEAKARQAAANARAKDKVAELQEFVRRFSANKSKARQATSRMKMIDKIKIEDFKPSSRQNPYIRFEPEKALHRRALEVENLKFGYDAEPLFTNLGFSLEAGEKLAVIGGNGVGKSTLMKLLMGELTPAYGEIRWSENANVGYFSQDHVADFDMDLNLTDWMHQWTQAGDDEQVLRGILGRLLFSGDDVKKSVRVLSGGEKGRMLYGKLMLGRHNVLVMDEPTNHMDMESIESLNLALELFKGTLIFVSHDRQFVSSLATRILEITPQGVEFYMGNYDEYLHSKGLE”, the “soluble on expression in E. coli” value is listed as “not soluble”.

Take “MSNRKFNLDNEVQPEIHFRLLSISASKFENDWTSFPHSHHFTEIFFIKDGTGRMLIENESLPVSSNSLVVIGAQVTHTEFSDPENPLDYYVLGVEGLKLNTDKEPEYIHVPASANSPFIRQCFENILREMHNKQDRYAEICQHYLDILILYFCRKDHVSYEVVDAQNSSRECHKVKRFIEHNYQSMISLDSLAENCSLSKYYLSHRFAELYGKSPIAYLNEVRLASARDLLLTTNHSIEEIAGCIGFSSTSYFSQSFQKNFHESPQQFRKSHRVRT”: the “soluble on expression in E. coli” value is listed as “not soluble”.

On to “MPQLSPWQHYQKDLTRDGFSHDPAQEIAVKALQRVYEDLTAAEEPNSLFGKLFTSFGLTSAPAPTKGLYLWGGVGRGKTYLMDTFFDTLPGNQKLRAHFHRFMHQLHLDLDALKGTRDPLLVIAKQMAAKYRVICFDEFFVSDITDAMLLGTLFQALFKEGVVLVATSNIIPDDLYKNGLQRARFLPAIALINQHCEVLNVDSGIDYRLRTLEQAEIYHHPLDEQADTNLLRYFGQLAPEAEISTEAIEIEGRAISIRQQAQGVLLADFRALCDGPRSQRDYMELARIYHTVLVSGIEQMGAFLTGDDIARRFLAMVDEFYERNVKLIVSAQVPLEDIYADGLLSFEFRRCRSRLIEMQSHDYLKSEHLPAAALEHHHHHH”, for which the “soluble on expression in E. coli” value is listed as “soluble”.

Take “MGSDKIHHHHHHMENYLGRLWTKAQLSEQLRKIAISLPSFIKKGSDYICTRCSSSVAKNCQLPTGNYYCRECIVFGRVTSNENLYYFPQKTFSKTNSLKWKGELTPYQNEVSEELLKGISSKENLLVHAVTGAGKTEMIYHSVAKVIDTGGSVCIASPRIDVCLELYKRLSNDFRCAITLMHGESPSYQRSPLTIATTHQLLKFYHAFDLLIVDEVDAFPYVDNPILYQGVKQALKENGTSIFLTATSTTELERKVARKELKKLHLARRFHANPLVIPEMVWVSGIQKSLQTQKLPPKLYQLINKQRQTRYPLLLFFPHISEGQVFTEILRQAFPMEKIGFVSSKSTSRLKLVQDFRDNKLSILVSTTILERGVTFPSVDVFVIQANHHLFTKSSLVQISGRVGRALERPEGLLYFLHDGKSKSMHQAIKEIKNMNHIGGF”: the “soluble on expression in E. coli” value is listed as “not soluble”.

Consider “EVQLQQSGPELVKPGTSVKMSCKASGYTFTDYYMKWVKHSHGKSLEWIGDINPSNGGTLYNQKFKGKATLTVDKSSSTASMQLSRLTSEDSAVYYCSRGDGIHGGFAYWGQGTTVTVSSAKTTAPSVYPLAPVCGDTTGSSVTLGCLVKGYFPEPVTLTWNSGSLSSGVHTFPAVLQSDLYTLSSSVTVTSSTWPSQSITCNVAHPASSTKVDKKIVPQV”, for which the “soluble on expression in E. coli” value is reported as “soluble”.

“MEDYEGKFSPSELKLKGIHTSTTFWTVGMIVQQYKNGHLVIPKIQRGYVWNEEKARRFIMSLLQGFPIPPIFIIELSGKFYVVDGQQRIRTILWFLGEDNELLEKLGPLRVPIKELAENYNEYGVTNLSEAIIKKIIFGNHPKEFNYKYFTKDFRQYFESLSIPVQHISISSGKEYILTDIFLRINQGSVKLSAMELWRVYYGKDIEEYFHKLNELARYTVAKIYEVSNGKISRQKLERFRIDEFILTFDVLINGLITPPNYIPKDAKLGAVIFSQKTTLKKVKIFVLENRRKVFKNNKGELKKFLDYLEREYKEILKMITYVLGEFTFRRPTIGNECQYALIRPSGNDINEAVFLYEVAIFKLLKDNGHSELIYENKDFIKHVILTSLIENDELFSRSTSTFRSVANKLELAKLTYKKIITKEDNITKDNLKRLLYEKFRASRVSNPVCPYCKEPISDISVADLAHIRPLAFGGQTYIHNLTLAHSTCNRRFGVRDISQYINRC”: the “soluble on expression in E. coli” value is recorded as “soluble”.

On to “MGSDKIHHHHHHMLLRKDEVFYIDLPRKIEKEEKVKEEKTKENAAEEIQRIEKMREKILSEAQEEARKIIEGARKDAEEILSNASSEAEALKLEAKKVLEEAKTMKNDFQKYILALKEKIQKQVNQRIEEILPELLDILRILFKKILEKEMDESTVERKLRSALSKVVGIKNVKIRINPEDAKKLDLSEVSKETLIPDPNVERGGVIVETDFGILDKTFSHQWELVEDIFEEVVGFEGHPERAEKEVE”, for which the “soluble on expression in E. coli” value was “not soluble”.

For “AARRALIVLAHSEKTSFNYAMKEAAVEALKKRGWEVLESDLYAMNFNPIISRNDITGELKDSKNFQYPSESSLAYKEGRLSPDIVAEHKKLEAADLVIFQFPLQWFGVPAILKGWFERVLVAGFAYTYAAMYDNGPFQNKKTLLSITTGGSGSMYSLQGVHGDMNVILWPIQSGILRFCGFQVLEPQLVYSIGHTPPDARMQILEGWKKRLETVWEETPLYFAPSSLFDLNFQAGFLLMKEVQEEQKKNKFGLSVGHHLGKSIPADNQIKARK”, the “soluble on expression in E. coli” value is recorded as “soluble”.

As for “MGMTRNLLAAGLAAVLALPALAAELVMVEQHGCEWCARWNEEIAPIYPKTAEGAFAPLRRVDLRAIPADLETARRVVFTPTFLIVEDGRELARLEGYPGEDFFWPLLEQLLVDHAGFVPKKPGSS”, the “soluble on expression in E. coli” value is “not soluble”.

As to “MTYDLSRLTQDLPHETSEPSPKSASTLSLPPGESDQNGNTSSHEGVTPPRRRCTISRSSSIDSISGETLISEYFSSDELDKLSTALSEVTF”, the “soluble on expression in E. coli” value is given as “not soluble”.

Take “ASNIYKIKEENKNEDICFIAGIGDTNGYGWGIAKELSKRNVKIIFGIWPPVYNIFMKNYKNGKFDNDMIIDKDKKMNILDMLPFDASFDTANDIDEETKNNKRYNMLQNYTIEDVANLIHQKYGKINMLVHSLANAKEVQKDLLNTSRKGYLDALSKSSYSLISLCKYFVNIMKPQSSIISLTYHASQKVVPGYGGGMSSAKAALESDTRVLAYHLGRNYNIRINTISAGPLKSRAATAINKLNNTYENNTNQNKNRNSHDVHNIMNNSGEKEEKKNSASQNYTFIDYAIEYSEKYAPLRQKLLSTDIGSVASFLLSRESRAITGQTIYVDNGLNIMFLPDDIYRNENE”: the “soluble on expression in E. coli” value is reported as “soluble”.

In the case of “MNTYAQESKLRLKTKIGADGRCVIEDNFFTPPFKLMAPFYPKDDLAEIMLLAVSPGMMRGDAQDVQLNIGPNCKLRITSQSFEKIHNTEDGFASRDMHIVVGENAFLDFAPFPLIPFENAHFKGNTTISLRSSSQLLYSEIIVAGRVARNELFKFNRLHTKISILQDEKPIYYDNTILDPKTTDLNNMCMFDGYTHYLNLVLVNCPIELSGVRECIEESEGVDGAVSETASSHLCVKALAKGSEPLLHLREKIARLVTQTTTQKVLEHHHHHH”, the “soluble on expression in E. coli” value is listed as “soluble”.

For the sequence “MGSDKIHHHHHHMETLQLRDISETALLPLWARAMETLRPDAIIHDDKALEMYQRLNYDFKRFSNAWLSQLAIAIRTDLIDKLVMDFINAHPQAVIINLGAGFDSRYLRVDNGQIHWFDLDLPNVIAARRLFFSDSDRYRMLEQSLFDVSWLEHAAGESDNCLILAEGVLMYFTEQRIKQFFNDLAERIPHARMLLEMLPHGALGQAHLHEAIGWMNAAFQWTLHNIRRLESWNSHIKVRQEWCILDYHWERWGALSLLAWSPWHRYLFGEKLALLEFD”, the “soluble on expression in E. coli” value is “not soluble”.

Consider “MSLNHPDYKLNLRSPGTPRGVSSVVGPSAVGASPGDKKSKNKSMRGKKKSIFETYMSKEDVSEGLKRGTLIQGVLRINPKKFHEAFIPSPDGDRDIFIDGVVARNRALNGDLVVVKLLPEDQWKAVKPESNDKEIEATYEADIPEEGCGHHPLQQSRKGWSGPDVIIEAQFDDSDSEDRHGNTSGLVDGVKKLSISTPDRGKEDSSTPVMKDENTPIPQDTRGLSEKSLQKSAKVVYILEKKHSRAATGILKLLADKNSDLFKKYALFSPSDHRVPRIYVPLKDCPQDFMTRPKDFANTLFICRIIDWKEDCNFALGQLAKSLGQAGEIEPETEGILTEYGVDFSDFSSEVLECLPQSLPWTIPPDEVGKRRDLRKDCIFTIDPSTARDLDDALACRRLTDGTFEVGVHIADVSYFVPEGSSLDKVAAERATSVYLVQKVVPMLPRLLCEELCSLNPMTDKLTFSVIWKLTPEGKILEEWFGRTIIRSCTKLSYDHAQSMIENPTEKIPEEELPPISPEHSVEEVHQAVLNLHSIAKQLRRQRFVDGALRLDQLKLAFTLDHETGLPQGCHIYEYRDSNKLVEEFMLLANMAVAHKIFRTFPEQALLRRHPPPQTKMLSDLVEFCDQMGLPMDVSSAGALNKSLTKTFGDDKYSLARKEVLTNMYSRPMQMALYFCSGMLQDQEQFRHYALNVPLYTHFTSPIRRFADVIVHRLLAAALGYSEQPDVEPDTLQKQADHCNDRRMASKRVQELSIGLFFAVLVKESGPLESEAMVMGVLNQAFDVLVLRFGVQKRIYCNALALRSYSFQKVGKKPELTLVWEPDDLEEEPTQQVITIFSLVDVVLQAEATALKYSAILKRPGLEKASEGHHHHHH”, for which the “soluble on expression in E. coli” value is reported as “soluble”.

For the sequence “MKEGMKVVLVGSPGIEGTWILAKDYDQLLLEKGISREIIEKAKEFKKDIVVQPKALSILDYVVAMHDATEGGIMQAMLEVAKASGYTVSINLDKIVLRRETKIITKALNIDPLRLISSGSFIAVSNTPEKILERISEAYIIGEIKRGDPVLEIK”, the “soluble on expression in E. coli” value was “soluble”.

With “MGSDKIHHHHHHMSSNQIAIKVTNLSKCYQIYSQPWDRLKQFFAPKIKSVIRRESRSYFKEFWALRDVSFSINRGETVGIIGRNGAGKSTLLQMICGTLTPTVGDIEVNGRVAALLELGAGFNPEFSGRDNVYLNGSVLGLSKSEIDKKFQEILDFADIGDFIDQPVKTYSSGMYVRLAFAVQACIDPEILIVDEALAVGDIGFQYKCFKRMEMLKQKGTTIIMVTHSTGSILEYADRCLVMSDGMLVGNTTDVLAAVLAYEKGMLMTERTDTAEKKEAVSQTGEIASADELSAIQNTQTNAEVDEKRFGSGRAIIEDFSIMKADGTPLSEKPLVKPNEEIYFSFKLNSSENINDVVLGVSLSRTQGGDIWGDNNIFAGHKIDLAPGLRKLKYKVKLPINTGDYLVHCGLACFNNGEREELDQRRPIAKVKFWSSRELGGVIHSPVNVIEGDELS”, the “soluble on expression in E. coli” value is recorded as “not soluble”.

Consider “MQLRKMQTIKKEPAPLDPTSSSDKMLLLNSALAEVAEDLASGEDLLLNEGSMGKNKSSACRRKREFIPDEKKDAMYWEKRRKNNEAAKRSREKRRLNDLVLENKLIALGEENATLKAELLSLKLKFGLISSTAYAQEIQKLSNSTAVYFQDYQTSKAAVSSFVDEHEPAMVAGSCISVIKHSPQSSLSDVSEVSSVEHTQESPAQGGCRSPENKFPVIKQEPVELESFAREAREERGTYSTSIYQSYMGSSFSTYSHSPPLLQVHGSTSNSPRTSEADEGVVGKSSDGEDEQQVPKGPIHSPVELQRVHATVVKVPEVNPSALPHKLRIKAKAMQVKVEALDSEFEGMQKLSSPADAIAKRHFDLEKHGTSGMAHSSLPPFSVQVTNIQDWSLKSEHWHHKELSSKTQSSFKTGVVEVKDGGYKVSEAENLYLKQGIANLSAEVVSLKRFIATQPISASDSR”, for which the “soluble on expression in E. coli” value is reported as “not soluble”.

“MAHHHHHHMLLLLFRPVYQCTVALLCRSLPAYHPCLLSTDSPPPFFTVFCHLDDALHAMRRRSCSLRRLEVHTKRRAHAIMAELANPNPTVFEPTHDPLKGRTDAERAAEDDEDTEDPIDAWEVFEMIRRIRDPEHPNSLEQLKVVEPSLITVDWKKRHIRVLFTPTVPHCSLTTLIGLSIRLQLERSLPEYTKVDIYVTPGTHEQEAQVNKQLNDKERVAAALENRNLLNVVESCINEFDE”: the “soluble on expression in E. coli” value is given as “not soluble”.
